The values that follow come from paper PMC6533264 (Scientific Reports, 2019).

The term Kd denotes the concentration at which binding is half-saturated. Low readings indicate tighter binding, high ones weaker binding. Usually koff stands for the rate constant with which the complex falls apart. Read a low koff as slow dissociation. Usually kon stands for a measure of how fast the partners come together.

One test has as its target Dupilumab analogue. In words: ELISA. As to conditions: dupilumab analogue 100 pM; read off a plot. (In general: ELISA stands for enzyme-linked immunosorbent assay.)
Test [1] deals with T1, extracellular domain of human IL-4Rα (residues 26–232), C-terminal 6× His (human, UniProt P24394).
T1 construct: human interleukin-4 receptor alpha subunit, extracellular domain, residues 26-232; Subcloned into the pSecTag2A vector; N-glycosylated (~45 kDa, ~26 kDa after PNGase F); also called wild-type IL-4Rα; soluble IL-4Rα; source: HEK293F, transiently transfected, purified (Ni-NTA); not shown: His6, C-terminal, kept
The test is described as follows: BLI; OctetRED96; Ab (1 μg/mL) captured on anti-human IgG Fc capture (AHC) biosensors at low density (0.6 to 0.8 nm), soluble monomeric IL-4Rα as analyte; 25 °C, PBS pH 7.4, 0.02% Tween 20; association 300 s, dissociation 600-900 s; 1:1 binding model. Conditions: both partners purified. (In general: BLI is a label-free optical method that tracks binding on a fibre tip over time.)

For another test, the target named is T2, insulin (Homo sapiens (assumed), UniProt P01308).
T2 construct: insulin B chain; insulin A chain; Polyreactivity antigen; source: bought: Sigma, I9278
In words: ELISA; non-specificity ELISA: hemocyanin (150 ng/well) and insulin (150 ng/well) coated (also dsDNA and cardiolipin). Conditions: both partners purified.

Positions count from the first letter of the chain named.

T1 sequence (P24394 26-232): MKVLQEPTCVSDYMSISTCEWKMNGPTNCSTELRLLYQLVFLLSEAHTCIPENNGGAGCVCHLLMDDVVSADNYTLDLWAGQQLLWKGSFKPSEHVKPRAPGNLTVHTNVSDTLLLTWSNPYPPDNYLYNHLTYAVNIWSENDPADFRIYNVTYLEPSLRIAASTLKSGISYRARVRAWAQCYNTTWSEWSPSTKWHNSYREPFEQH
T2 sequence (P01308 whole entry, looked up): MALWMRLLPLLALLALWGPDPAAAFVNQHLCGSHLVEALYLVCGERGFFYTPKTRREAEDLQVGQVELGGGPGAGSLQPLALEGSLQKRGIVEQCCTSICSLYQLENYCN

Regarding “extracellular domain of human IL-4Rα (residues 26–232), C-terminal 6× His (from UniProt P24394) S95A”, the percent of parent with Dupilumab analogue stood at 100%.

Turning to “extracellular domain of human IL-4Rα (residues 26–232), C-terminal 6× His (from UniProt P24394) D92A”, the percent of parent with Dupilumab analogue was 100%.

For “extracellular domain of human IL-4Rα (residues 26–232), C-terminal 6× His (from UniProt P24394) Y208A”, the percent of parent with Dupilumab analogue is 100%.

As for “extracellular domain of human IL-4Rα (residues 26–232), C-terminal 6× His (from UniProt P24394) D97A”, the percent of parent with Dupilumab analogue was 73%.

Regarding “extracellular domain of human IL-4Rα (residues 26–232), C-terminal 6× His (from UniProt P24394) V93A”, in the test with Dupilumab analogue, the percent of parent came to 76%.

In the case of “extracellular domain of human IL-4Rα (residues 26–232), C-terminal 6× His (from UniProt P24394) L67A”, the percent of parent in the test with Dupilumab analogue turned out to be 100%.

With “extracellular domain of human IL-4Rα (residues 26–232), C-terminal 6× His (from UniProt P24394) Y38A”, the percent of parent in the test with Dupilumab analogue worked out at 120%.

“extracellular domain of human IL-4Rα (residues 26–232), C-terminal 6× His (from UniProt P24394) L68A”: the percent of parent with Dupilumab analogue is 97%.

B1: 4R34, human IgG1 (antibody, V domains shown)
VH: EVQLLESGGGLVQPGGSLRLSCAASGFTFSNYAMSWVRQAPGKGLEWVSAISSGGGNIYYADSVKGRFTISRDNSKNTLYLQMNSLRAEDTAVYYCARVHRAFDYWGQGTLVTVSS
VL: QSVLTQPPSASGTPGQRVTISCSGSSSNIGSNTFNWYQQLPGTAPKLLIYADSHRPSGVPDRFSGSKSGTSASLAISGLRSEDEADYYCGTWDYSLSGYVLGGGTKLTVL
On to B1, for which, in test [1], binding was characterised by a dissociation constant (Kd) of 1.04 nM, the koff worked out at 0.00361 s⁻¹ and the kon worked out at 3.47e+06 M⁻¹ s⁻¹.

B2: 4R34.1.17, human IgG1 (antibody, V domains shown)
VH: B1 VH with S52T, G54S, G56R, N57S
VL: B1 VL with S26T, S27K, N28Q, I29M, G30H, S31N, N32Y, T33Q
In test [1], B2 came in with a Kd of 0.179 nM, a koff of 0.000879 s⁻¹ and a kon of 4.92e+06 M⁻¹ s⁻¹.

B3: 4R34.1.13, human IgG1 (antibody, V domains shown)
VH: B1 VH with S52T, G54S, G56R, N57S
VL: B1 VL with S26A, S27Q, N28F, I29G, G30S, S31R, N32D, T33N, S97R
In test [1], B3 had a dissociation constant (Kd) of 0.208 nM, a koff of 0.00107 s⁻¹ and a kon of 5.12e+06 M⁻¹ s⁻¹.

B4: 4R34.2, human IgG1 (antibody, V domains shown)
VH: B1 VH with S52T, G54S, G56A
VL: B1 VL with S97R
In test [1], B4 had a Kd of 0.853 nM, a koff of 0.00401 s⁻¹ and a kon of 4.7e+06 M⁻¹ s⁻¹.

B5: 4R34.19, human IgG1 (antibody, V domains shown)
VH: B1 VH with S52T, G54S
VL: B1 VL with T91Y
In test [1], B5 gave a Kd of 0.532 nM, a koff of 0.00243 s⁻¹ and a kon of 4.58e+06 M⁻¹ s⁻¹.

B6: 4R34.1.11, human IgG1 (antibody, V domains shown)
VH: B1 VH with S52T, G54S, G56R, N57S
VL: B1 VL with S27A, I29S, G30R, S31T, N32D, T33G, S97R
In test [1], B6 had a Kd of 0.21 nM, a koff of 0.000968 s⁻¹ and a kon of 4.62e+06 M⁻¹ s⁻¹.

B7: 4R34.1.19, human IgG1 (antibody, V domains shown)
VH: B1 VH with N31R, Y32H, S35A, S52T, G54S, G56R, N57S
VL: B1 VL with S26P, S27L, N28F, I29P, G30D, N32G, T33S
For the molecule B7, in the test with insulin, the binding result was “no binding”. In test [1], this molecule returned a Kd of 0.178 nM, a koff of 0.000877 s⁻¹ and a kon of 4.93e+06 M⁻¹ s⁻¹.

B8: 4R34.1, human IgG1 (antibody, V domains shown)
VH: B1 VH with S52T, G54S, G56R, N57S
VL: B1 VL
In test [1], B8 had a Kd of 0.401 nM, a koff of 0.00172 s⁻¹ and a kon of 4.28e+06 M⁻¹ s⁻¹.

B9: 4R34.29, human IgG1 (antibody, V domains shown)
VH: B1 VH with S52T, S53A, N57S
VL: B1 VL
In test [1], B9 gave a Kd of 0.716 nM, a koff of 0.00371 s⁻¹ and a kon of 5.18e+06 M⁻¹ s⁻¹.

B10: 4R34.1.21, human IgG1 (antibody, V domains shown)
VH: B1 VH with S52T, G54S, G56R, N57S
VL: B1 VL with S26A, S27A, N28L, I29D, G30L, N32P, T33S
For B10, in test [1], the Kd was 0.228 nM, the koff stood at 0.00106 s⁻¹ and the kon stood at 4.63e+06 M⁻¹ s⁻¹.

B11: 4R34.1.18, human IgG1 (antibody, V domains shown)
VH: B1 VH with S52T, G54S, G56R, N57S
VL: B1 VL with S26L, S27L, N28R, I29G, G30E, S31N, N32L, T33Q, S97R
For B11, in test [1], binding was put at a Kd of 0.29 nM, the koff is 0.00175 s⁻¹ and the kon stood at 6.05e+06 M⁻¹ s⁻¹.
